Drawing on patent US20130072665A1, this text covers IC50 (read off the curve) and Kd for 3 molecules.

What is called Kd is a measure of binding affinity in units of concentration.

In experiment [1] the target is cynomolgus monkey PCSK9 (cynomolgus monkey). The experiment can be described thus: BIAcore solution equilibrium, % free cPCSK9 against [21B12]; leftmost of four curves; cPCSK9 concentration not given. A general note: SPR reads the build-up and loss of mass on a sensor chip optically.
Experiment [2] has the same target. The experiment can be described thus: BIAcore solution equilibrium, % free cPCSK9 against [21B12]; rightmost of four curves; cPCSK9 concentration not given.
Experiment [3] shares this target. The experiment can be described thus: BIAcore solution equilibrium, % free cPCSK9 against [21B12]; third of four curves; cPCSK9 concentration not given.
The target is the same in experiment [4]. The experiment can be described thus: BIAcore solution equilibrium, % free cPCSK9 against [21B12]; second of four curves; cPCSK9 concentration not given.
Experiment [5] has the same target. The experiment can be described thus: BIAcore solution equilibrium.
Experiment [6] shares this target. The experiment can be described thus: BIAcore, antibody immobilised, pH 7.4.
For experiment [7] the target is unchanged. The experiment can be described thus: BIAcore solution equilibrium, column To Cyno PCSK9.
Experiment [8] shares this target. The experiment can be described thus: KinExA solution equilibrium.

B1: 21B12, anti-PCSK9 huIgG4 (antibody, V domains shown)
VH: QVQLVQSGAEVKKPGASVKVSCKASGYTLTSYGISWVRQAPGQGLEWMGWVSFYNGNTNYAQKLQGRGTMTTDPSTSTAYMELRSLRSDDTAVYYCARGYGMDVWGQGTTVTVSS
VL: QSALTQPASVSGSPGQSITISCTGTSSDVGGYNSVSWYQQHPGKAPKLMIYEVSNRPSGVSNRFSGSKSGNTASLTISGLQAEDEADYYCNSYTSTSMVFGGGTKLTVLQ
With B1, the IC50 (read off the curve) in experiment [1] worked out at 0.02 nM; in experiment [2], 0.2 nM; in experiment [3], 0.09 nM; in experiment [4], 0.03 nM. Further, the Kd in experiment [5] was 0.011 nM; in experiment [6], 0.36 nM.

B2: 23B5 (antibody, V domains shown)
VH: EVQLLESGGGLVQPGGSLRLSCAASGFTFSSYAMNWVRQAPGKGLEWVSTISGSGDNTYYADSVKGRFTISRDNSKNTLYLQMNSLRAEDTAVYYCAKKFVLMVYAMLDYWGQGTLVTVSS
VL: DILMTQSPSSLSASVGDRVTITCRASQSISSYLNWYQQKPGKAPKVLIYAASSLQSGVPSRFSGSGSGTDFTLTINSLQPEDFATYYCQQSYSSPITFGQGTRLEIK
In the case of B2, in experiment [7], the Kd amounted to 0.12 nM.

B3: 16F12, anti-PCSK9 huIgG4 (antibody, V domains shown)
VH: QVHLVESGGGVVQPGRSLRLSCAASGFTFNSFGMHWVRQAPGKGLEWVALIWSDGSDEYYADSVKGRFTISRDNSKNTLYLQMNSLRAEDTAVYYCARAIAALYYYYGMDVWGQGTTVTVSS
VL: QSVLTQPPSVSAAPGQKVTISCSGSSSNIGNNFVSWYQQLPGTAPKLLIYDYNKRPSGIPDRFSGSKSGTSATLGITGLQTGDEADYYCGTWDSSLSAYVFGTGTRVTVLQ
On to B3, for which the dissociation constant Kd in experiment [8] was found to be 0.016 nM; in experiment [6], 0.87 nM.
